Data taken from PMC9482650, “Quantitative fragmentomics allow affinity mapping of interactomes” (Nature Communications, 2022).

T1: CARD11, Q9BXL7
T1 sequence (Q9BXL7 662-765, limits assumed, looked up): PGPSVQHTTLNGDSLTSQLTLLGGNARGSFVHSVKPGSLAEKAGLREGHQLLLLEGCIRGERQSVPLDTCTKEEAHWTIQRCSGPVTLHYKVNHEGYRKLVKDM

T2: FRMPD1, Q5SYB0
T2 sequence (Q5SYB0 52-145, limits assumed, looked up): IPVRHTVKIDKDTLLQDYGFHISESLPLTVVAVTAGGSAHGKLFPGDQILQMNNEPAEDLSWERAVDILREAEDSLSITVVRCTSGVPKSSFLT

T3: SIPA1L2, Q9P2F8
T3 sequence (Q9P2F8 945-1036, limits assumed, looked up): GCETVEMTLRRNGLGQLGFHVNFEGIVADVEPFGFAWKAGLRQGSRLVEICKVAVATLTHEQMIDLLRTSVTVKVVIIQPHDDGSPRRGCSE

T4: DFNB31_1, Q9P202
T4 sequence (Q9P202 135-233, limits assumed, looked up): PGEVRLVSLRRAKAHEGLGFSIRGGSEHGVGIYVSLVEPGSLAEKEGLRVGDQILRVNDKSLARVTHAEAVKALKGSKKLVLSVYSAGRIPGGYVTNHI

T5: PARD3B_1, Q8TEW8
T5 sequence (Q8TEW8 196-299, limits assumed, looked up): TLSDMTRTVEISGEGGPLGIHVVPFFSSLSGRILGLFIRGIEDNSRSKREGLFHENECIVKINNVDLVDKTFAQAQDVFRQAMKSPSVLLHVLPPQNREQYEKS

T6: PDZD7_3, Q9H5P4
T6 sequence (Q9H5P4 857-944, limits assumed, looked up): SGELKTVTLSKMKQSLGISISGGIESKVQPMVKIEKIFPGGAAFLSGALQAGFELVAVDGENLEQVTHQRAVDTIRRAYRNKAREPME

T7: HTRA3, P83110
T7 sequence (P83110 354-453, limits assumed, looked up): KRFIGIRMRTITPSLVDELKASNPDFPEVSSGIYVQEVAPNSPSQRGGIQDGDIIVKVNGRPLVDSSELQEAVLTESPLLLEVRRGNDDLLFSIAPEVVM

T8: APBA2_2, Q99767
T8 sequence (Q99767 654-744, limits assumed, looked up): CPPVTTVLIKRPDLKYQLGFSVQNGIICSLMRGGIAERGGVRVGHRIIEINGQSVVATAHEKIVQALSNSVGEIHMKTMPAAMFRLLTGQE

T9: ARHGAP21, Q5T5U3
T9 sequence (Q5T5U3 45-169, limits assumed, looked up): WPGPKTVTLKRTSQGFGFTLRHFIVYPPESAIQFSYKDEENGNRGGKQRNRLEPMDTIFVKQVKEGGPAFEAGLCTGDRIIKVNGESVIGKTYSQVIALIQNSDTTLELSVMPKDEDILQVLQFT

T10: DFNB31_3, Q9P202
T10 sequence (Q9P202 811-907, limits assumed, looked up): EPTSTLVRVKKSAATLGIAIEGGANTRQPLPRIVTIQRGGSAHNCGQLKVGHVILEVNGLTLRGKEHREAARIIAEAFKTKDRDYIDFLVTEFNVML

T11: SNTG1, Q9NSN8
T11 sequence (Q9NSN8 52-150, limits assumed, looked up): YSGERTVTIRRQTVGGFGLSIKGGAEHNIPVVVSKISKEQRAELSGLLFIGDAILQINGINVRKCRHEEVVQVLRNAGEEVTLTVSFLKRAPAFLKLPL

T12: SNTA1, Q13424
T12 sequence (Q13424 82-180, limits assumed, looked up): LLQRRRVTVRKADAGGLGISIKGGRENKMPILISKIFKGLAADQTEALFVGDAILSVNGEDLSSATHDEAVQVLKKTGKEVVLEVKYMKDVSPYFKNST

T13: TJP3_3, O95049
T13 sequence (O95049 375-456, limits assumed, looked up): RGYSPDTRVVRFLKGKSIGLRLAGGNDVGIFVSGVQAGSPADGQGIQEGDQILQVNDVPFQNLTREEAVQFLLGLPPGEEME

B1: KCNA6, P17658 (peptide)
chain: YAEKRMLTEV
B2: LPAR1, Q92633 (peptide)
chain: GVHSNDHSVV

Target: TJP1_2, Q07157
Sequence (Q07157 181-274): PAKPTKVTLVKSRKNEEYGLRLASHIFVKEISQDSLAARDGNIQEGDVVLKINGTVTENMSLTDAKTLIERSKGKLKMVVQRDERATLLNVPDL
Assay: holdup assay
Parameters: key: below the threshold = too weak to quantify, mostly under pKd 3.1 to 4
Settings: plain residues with an end cap or a label only (N-terminal biotin on a linker: ado-ado)

| pKd | Binder |
| --- | --- |
| below the threshold | B1 |
| below the threshold | B2 |

Target: T1, CARD11, Q9BXL7
Assay: holdup assay
Parameters: key: below the threshold = too weak to quantify, mostly under pKd 3.1 to 4
Settings: plain residues with an end cap or a label only (N-terminal biotin on a linker: ado-ado)

| pKd | Binder |
| --- | --- |
| below the threshold | B1 |
| below the threshold | B2 |

Target: MAGI1_2, Q96QZ7
Sequence (Q96QZ7 456-580): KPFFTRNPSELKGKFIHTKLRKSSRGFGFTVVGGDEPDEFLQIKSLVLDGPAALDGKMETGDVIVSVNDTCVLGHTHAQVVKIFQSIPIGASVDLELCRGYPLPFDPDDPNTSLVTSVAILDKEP
Assay: holdup assay
Parameters: key: below the threshold = too weak to quantify, mostly under pKd 3.1 to 4
Settings: plain residues with an end cap or a label only (N-terminal biotin on a linker: ado-ado)

| pKd | Binder |
| --- | --- |
| 4.54 | B1 |
| below the threshold | B2 |

Target: TJP2_1, Q9UDY2
Sequence (Q9UDY2 24-128): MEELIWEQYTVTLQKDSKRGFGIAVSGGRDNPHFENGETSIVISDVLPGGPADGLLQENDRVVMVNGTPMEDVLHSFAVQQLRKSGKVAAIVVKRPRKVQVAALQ
Assay: holdup assay
Parameters: key: below the threshold = too weak to quantify, mostly under pKd 3.1 to 4
Settings: plain residues with an end cap or a label only (N-terminal biotin on a linker: ado-ado)

| pKd | Binder |
| --- | --- |
| below the threshold | B1 |
| below the threshold | B2 |

Target: LIMK2, P53671
Sequence (P53671 143-248): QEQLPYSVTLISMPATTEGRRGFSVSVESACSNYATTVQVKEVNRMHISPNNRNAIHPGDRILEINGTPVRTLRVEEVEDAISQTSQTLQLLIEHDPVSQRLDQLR
Assay: holdup assay
Parameters: key: below the threshold = too weak to quantify, mostly under pKd 3.1 to 4
Settings: plain residues with an end cap or a label only (N-terminal biotin on a linker: ado-ado)

| pKd | Binder |
| --- | --- |
| below the threshold | B1 |
| below the threshold | B2 |

Target: T2, FRMPD1, Q5SYB0
Assay: holdup assay
Parameters: key: below the threshold = too weak to quantify, mostly under pKd 3.1 to 4
Settings: plain residues with an end cap or a label only (N-terminal biotin on a linker: ado-ado)

| pKd | Binder |
| --- | --- |
| below the threshold | B1 |
| below the threshold | B2 |

Target: T3, SIPA1L2, Q9P2F8
Assay: holdup assay
Parameters: key: below the threshold = too weak to quantify, mostly under pKd 3.1 to 4
Settings: plain residues with an end cap or a label only (N-terminal biotin on a linker: ado-ado)

| pKd | Binder |
| --- | --- |
| below the threshold | B1 |
| below the threshold | B2 |

Target: T4, DFNB31_1, Q9P202
Assay: holdup assay
Parameters: key: below the threshold = too weak to quantify, mostly under pKd 3.1 to 4
Settings: plain residues with an end cap or a label only (N-terminal biotin on a linker: ado-ado)

| pKd | Binder |
| --- | --- |
| below the threshold | B1 |
| below the threshold | B2 |

Target: T5, PARD3B_1, Q8TEW8
Assay: holdup assay
Parameters: key: below the threshold = too weak to quantify, mostly under pKd 3.1 to 4
Settings: plain residues with an end cap or a label only (N-terminal biotin on a linker: ado-ado)

| pKd | Binder |
| --- | --- |
| below the threshold | B1 |
| below the threshold | B2 |

Target: GORASP1, Q9BQQ3
Sequence (Q9BQQ3 1-208): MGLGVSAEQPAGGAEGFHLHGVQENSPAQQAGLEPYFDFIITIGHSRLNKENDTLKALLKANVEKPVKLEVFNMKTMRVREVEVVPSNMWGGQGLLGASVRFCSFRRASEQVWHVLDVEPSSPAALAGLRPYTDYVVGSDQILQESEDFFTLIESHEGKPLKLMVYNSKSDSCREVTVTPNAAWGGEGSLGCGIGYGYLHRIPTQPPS
Assay: holdup assay
Parameters: key: below the threshold = too weak to quantify, mostly under pKd 3.1 to 4
Settings: plain residues with an end cap or a label only (N-terminal biotin on a linker: ado-ado)

| pKd | Binder |
| --- | --- |
| below the threshold | B1 |
| 3.48 | B2 |

Target: T6, PDZD7_3, Q9H5P4
Assay: holdup assay
Parameters: key: below the threshold = too weak to quantify, mostly under pKd 3.1 to 4
Settings: plain residues with an end cap or a label only (N-terminal biotin on a linker: ado-ado)

| pKd | Binder |
| --- | --- |
| 4.95 | B1 |
| 3.68 | B2 |

Target: GRIP2_7, Q9C0E4
Sequence (Q9C0E4 934-1023): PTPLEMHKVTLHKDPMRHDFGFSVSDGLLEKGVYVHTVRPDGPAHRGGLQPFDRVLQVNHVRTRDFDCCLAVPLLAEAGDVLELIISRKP
Assay: holdup assay
Parameters: key: below the threshold = too weak to quantify, mostly under pKd 3.1 to 4
Settings: plain residues with an end cap or a label only (N-terminal biotin on a linker: ado-ado)

| pKd | Binder |
| --- | --- |
| below the threshold | B1 |
| below the threshold | B2 |

Target: T7, HTRA3, P83110
Assay: holdup assay
Parameters: key: below the threshold = too weak to quantify, mostly under pKd 3.1 to 4
Settings: plain residues with an end cap or a label only (N-terminal biotin on a linker: ado-ado)

| pKd | Binder |
| --- | --- |
| below the threshold | B1 |
| below the threshold | B2 |

Target: T8, APBA2_2, Q99767
Assay: holdup assay
Parameters: key: below the threshold = too weak to quantify, mostly under pKd 3.1 to 4
Settings: plain residues with an end cap or a label only (N-terminal biotin on a linker: ado-ado)

| pKd | Binder |
| --- | --- |
| below the threshold | B1 |
| below the threshold | B2 |

Target: PARD3_3, Q8TEW0
Sequence (Q8TEW0 582-685): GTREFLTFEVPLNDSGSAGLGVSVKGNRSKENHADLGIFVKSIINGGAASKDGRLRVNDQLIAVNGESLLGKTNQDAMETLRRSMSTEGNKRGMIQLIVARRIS
Assay: holdup assay
Parameters: key: below the threshold = too weak to quantify, mostly under pKd 3.1 to 4
Settings: plain residues with an end cap or a label only (N-terminal biotin on a linker: ado-ado)

| pKd | Binder |
| --- | --- |
| below the threshold | B1 |
| below the threshold | B2 |

Target: SCRIB_3, Q14160
Sequence (Q14160 999-1103): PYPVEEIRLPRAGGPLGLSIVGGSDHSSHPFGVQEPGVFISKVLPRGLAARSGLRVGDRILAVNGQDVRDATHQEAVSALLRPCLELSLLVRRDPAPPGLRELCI
Assay: holdup assay
Parameters: key: below the threshold = too weak to quantify, mostly under pKd 3.1 to 4
Settings: plain residues with an end cap or a label only (N-terminal biotin on a linker: ado-ado)

| pKd | Binder |
| --- | --- |
| 3.52 | B1 |
| below the threshold | B2 |

Target: T9, ARHGAP21, Q5T5U3
Assay: holdup assay
Parameters: key: below the threshold = too weak to quantify, mostly under pKd 3.1 to 4
Settings: plain residues with an end cap or a label only (N-terminal biotin on a linker: ado-ado)

| pKd | Binder |
| --- | --- |
| below the threshold | B1 |
| below the threshold | B2 |

Target: GRIP2_3, Q9C0E4
Sequence (Q9C0E4 238-339): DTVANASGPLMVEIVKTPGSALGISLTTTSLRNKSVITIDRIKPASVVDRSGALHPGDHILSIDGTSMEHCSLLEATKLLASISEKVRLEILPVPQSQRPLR
Assay: holdup assay
Parameters: key: below the threshold = too weak to quantify, mostly under pKd 3.1 to 4
Settings: plain residues with an end cap or a label only (N-terminal biotin on a linker: ado-ado)

| pKd | Binder |
| --- | --- |
| below the threshold | B1 |
| below the threshold | B2 |

Target: T10, DFNB31_3, Q9P202
Assay: holdup assay
Parameters: key: below the threshold = too weak to quantify, mostly under pKd 3.1 to 4
Settings: plain residues with an end cap or a label only (N-terminal biotin on a linker: ado-ado)

| pKd | Binder |
| --- | --- |
| 4.15 | B1 |
| below the threshold | B2 |

Target: T11, SNTG1, Q9NSN8
Assay: holdup assay
Parameters: key: below the threshold = too weak to quantify, mostly under pKd 3.1 to 4
Settings: plain residues with an end cap or a label only (N-terminal biotin on a linker: ado-ado)

| pKd | Binder |
| --- | --- |
| 3.57 | B1 |
| below the threshold | B2 |

Target: T12, SNTA1, Q13424
Assay: holdup assay
Parameters: key: below the threshold = too weak to quantify, mostly under pKd 3.1 to 4
Settings: plain residues with an end cap or a label only (N-terminal biotin on a linker: ado-ado)

| pKd | Binder |
| --- | --- |
| below the threshold | B1 |
| 3.68 | B2 |

Target: SCRIB_1, Q14160
Sequence (Q14160 718-814): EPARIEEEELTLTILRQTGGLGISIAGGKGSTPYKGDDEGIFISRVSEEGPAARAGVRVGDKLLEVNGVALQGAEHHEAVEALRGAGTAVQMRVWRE
Assay: holdup assay
Parameters: key: below the threshold = too weak to quantify, mostly under pKd 3.1 to 4
Settings: plain residues with an end cap or a label only (N-terminal biotin on a linker: ado-ado)

| pKd | Binder |
| --- | --- |
| 3.63 | B1 |
| below the threshold | B2 |

Target: NHERF4_2, Q86UT5
Sequence (Q86UT5 220-308): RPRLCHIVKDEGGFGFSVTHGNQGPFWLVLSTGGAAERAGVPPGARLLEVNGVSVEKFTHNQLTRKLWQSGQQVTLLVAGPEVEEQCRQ
Assay: holdup assay
Parameters: key: below the threshold = too weak to quantify, mostly under pKd 3.1 to 4
Settings: plain residues with an end cap or a label only (N-terminal biotin on a linker: ado-ado)

| pKd | Binder |
| --- | --- |
| below the threshold | B1 |
| below the threshold | B2 |

Target: T13, TJP3_3, O95049
Assay: holdup assay
Parameters: key: below the threshold = too weak to quantify, mostly under pKd 3.1 to 4
Settings: plain residues with an end cap or a label only (N-terminal biotin on a linker: ado-ado)

| pKd | Binder |
| --- | --- |
| below the threshold | B1 |
| below the threshold | B2 |
